From article PMC4892619

Tests used:
[1] = target: T1, CsrA-His6 (Campylobacter jejuni 81-176) (UniProt Q0P9F1); assay: EMSA; settings: 10 mM Tris-HCl pH 7.5, 10 mM MgCl2, 100 mM KCl, 32.5 ng yeast RNA, 20 mM DTT, 7.5% glycerol, 4 U RNase inhibitor, 10 ul, 30 min at 37 C; 15% native PAGE
T1 sequence: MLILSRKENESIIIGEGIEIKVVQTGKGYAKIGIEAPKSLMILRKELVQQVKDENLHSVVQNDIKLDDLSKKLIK

[2] = test system: CsrA-His6 (Campylobacter jejuni 81-176); assay: EMSA; settings: 10 mM Tris-HCl pH 7.5, 10 mM MgCl2, 100 mM KCl, 32.5 ng yeast RNA, 20 mM DTT, 7.5% glycerol, 4 U RNase inhibitor, 10 ul, 30 min at 37 C; 15% native PAGE

Substance | Kd [1] | Kd [2]
GGGUAUAAAUUUUUAAAAAAAAGUAACGAUAUAGCAUUUAACAAGCUCAUGGAUGAGUUUGAAAUUAUUUAAAAGGAUUUAAA [flaA mRNA 5' end transcript] | 6.53 nM | –
flaA mRNA 5' end transcript | – | 6.53 nM
